US20250002610A1 (Genmab, published 2025)

Experiments:
[1] = target: T1, human DR4 (Death Receptor 4), cell surface expressed on human tumor cell lines (human, UniProt O00220 24-468); assay: flow cytometry, A549 cells, n = 3
T1 construct: also called TNFRSF10A; TRAIL-R1
T1 sequence: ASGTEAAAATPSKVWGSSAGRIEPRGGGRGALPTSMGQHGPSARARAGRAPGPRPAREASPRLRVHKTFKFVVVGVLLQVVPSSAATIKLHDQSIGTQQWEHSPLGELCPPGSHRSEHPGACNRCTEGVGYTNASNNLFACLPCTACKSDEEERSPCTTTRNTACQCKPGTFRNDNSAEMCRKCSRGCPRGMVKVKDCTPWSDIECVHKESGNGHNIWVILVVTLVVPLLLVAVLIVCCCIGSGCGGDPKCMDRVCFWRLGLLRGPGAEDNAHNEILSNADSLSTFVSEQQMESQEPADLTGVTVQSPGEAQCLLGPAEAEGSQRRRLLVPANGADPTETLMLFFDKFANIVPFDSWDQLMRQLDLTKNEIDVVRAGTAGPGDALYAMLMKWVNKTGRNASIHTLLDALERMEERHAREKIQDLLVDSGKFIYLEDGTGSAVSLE

[2] = target: T1, human DR4 (Death Receptor 4), cell …; assay: flow cytometry, DLD-1 cells, n = 3
[3] = target: T1, human DR4 (Death Receptor 4), cell …; assay: flow cytometry, A549 cells, n = 2
[4] = target: T1, human DR4 (Death Receptor 4), cell …; assay: flow cytometry, A549 cells, average ± SEM
[5] = target: T1, human DR4 (Death Receptor 4), cell …; assay: flow cytometry, HCT-116 cells, n = 2
[6] = target: T1, human DR4 (Death Receptor 4), cell …; assay: flow cytometry, HCT-116 cells, n = 3
[7] = target: T1, human DR4 (Death Receptor 4), cell …; assay: flow cytometry, HCT-15 cells, n = 1
[8] = target: T1, human DR4 (Death Receptor 4), cell …; assay: flow cytometry, HCT-116 cells, average ± SEM
[9] = target: T2, human FAPα (Fibroblast activation protein alpha), cell surface expressed (human, UniProt Q12884 1-760); assay: flow cytometry, human lung fibroblasts, n = 2
T2 construct: Endogenous on human lung fibroblasts and CAFs
T2 sequence: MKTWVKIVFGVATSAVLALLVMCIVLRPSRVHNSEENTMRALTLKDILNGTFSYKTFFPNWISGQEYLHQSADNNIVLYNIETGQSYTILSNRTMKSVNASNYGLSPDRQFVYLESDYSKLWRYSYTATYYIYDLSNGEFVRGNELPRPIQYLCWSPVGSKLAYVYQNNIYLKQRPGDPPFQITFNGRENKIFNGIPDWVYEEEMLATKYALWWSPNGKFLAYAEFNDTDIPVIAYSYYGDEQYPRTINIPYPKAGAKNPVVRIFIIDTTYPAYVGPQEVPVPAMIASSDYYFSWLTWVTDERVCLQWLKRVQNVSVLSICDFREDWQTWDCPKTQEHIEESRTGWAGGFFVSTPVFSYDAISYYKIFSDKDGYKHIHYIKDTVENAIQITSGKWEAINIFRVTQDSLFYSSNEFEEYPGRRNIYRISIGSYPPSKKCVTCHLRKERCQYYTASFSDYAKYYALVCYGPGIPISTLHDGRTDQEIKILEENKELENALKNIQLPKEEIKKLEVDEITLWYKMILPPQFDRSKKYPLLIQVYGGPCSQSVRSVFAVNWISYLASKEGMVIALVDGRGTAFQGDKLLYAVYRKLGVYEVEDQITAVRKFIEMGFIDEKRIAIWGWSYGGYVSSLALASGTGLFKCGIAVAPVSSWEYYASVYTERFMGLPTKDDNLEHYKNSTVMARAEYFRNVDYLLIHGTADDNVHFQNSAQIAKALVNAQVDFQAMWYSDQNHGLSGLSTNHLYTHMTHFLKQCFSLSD
Protocol: Binding of bispecific or monoclonal antibodies carrying the anti-FAPα arm derived from IgG1-FAPα-FERL (BisG1-FAPα-FERL/DR4-FERR, BisG1-FAPα-FERL/b12-FERR, and IgG1-FAPα-FERL) to cell surface expressed human FAPα was analyzed by flow cytometry using human lung fibroblasts and CAFs, which endogenously express FAPα. BisG1-b12-FERL/b12-FERR was used as negative control.
Human lung fibroblasts and CAFs (50,000 cells/well) were seeded in 96-Well round bottom plates (Greiner Bio-one, Cat #650101). Antibody dilutions were prepared using fluorescence-activated cell sorting (FACS) buffer, consisting of phosphate buffer saline (PBS, Lonza, Cat #BE17-517Q)+1% Bovine Serum Albumin (BSA, Roche, Cat #10735086001)+0.02% Sodium Azide (Bio-World, Cat #41920044-3). Plates were centrifuged, supernatant was removed, cells were resuspended in 50 μL of human Fc Block (BD, Cat #564220, diluted 1:100 in FACS buffer) and 50 μL of viability stain TO-PRO-3 Iodide (Thermo Fisher, Cat #T3605, diluted 1: 25,000 in FACS buffer), and incubated for 15 min at 4° C. Plates were washed three times with FACS buffer. Plates were centrifuged, supernatant was removed, cells were resuspended in 50 μL of antibody dilutions (concentration range 90-0.0005 μg/mL, three-fold dilution steps using FACS buffer) of BisG1-FAPα-FERL/DR4-FERR, BisG1-FAPα-FERL/b12-FERR, BisG1-b12-FERL/b12-FERR (top six concentrations only for CAFs culture) or IgG1-FAPα-FERL (top four concentrations only for CAFs culture) and incubated for 30 min at 4° C. Cells were washed three times with FACS buffer and resuspended in 50 μL of Fluorescein isothiocyanate (FITC)-labeled polyclonal antibody goat anti-mouse IgG1 (Jackson Immuno Research, Cat #109-096-097, diluted 1:100 in FACS buffer). […] Antibody binding to viable cells (TO-PRO-3 negative) was analyzed by flow cytometry on a FACSCelesta™ (BD biosciences) and data were processed using FlowJo_v10.8.1 (FlowJo LLC). Geomean fluorescence intensity, gMFI, was determined and visualized using GraphPad Prism.

EC50 [9]: 0.047 µg/mL
B1: BisG1-FAPα-FERL/DR4-FERR (bispecific antibody, human IgG1, kappa, lambda)
heavy 1: EVQLLESGGGLVQPGGSPRLSCEASGFTFSSYALSWVRQAPGKGLEWVSAISGSGGGRYYADSVKGRFTISRDNSKNTLFLQMNSLRAEDTAVYYCAKEGYSSSGTYWDHWGQGTLVTVSSASTKGPSVFPLAPSSKSTSGGTAALGCLVKDYFPEPVTVSWNSGALTSGVHTFPAVLQSSGLYSLSSVVTVPSSSLGTQTYICNVNHKPSNTKVDKRVEPKSCDKTHTCPPCPAPEFERGPSVFLFPPKPKDTLMISRTPEVTCVVVDVSHEDPEVKFNWYVDGVEVHNAKTKPREEQYNSTYRVVSVLTVLHQDWLNGKEYKCKVSNKALPAPIEKTISKAKGQPREPQVYTLPPSREEMTKNQVSLTCLVKGFYPSDIAVEWESNGQPENNYKTTPPVLDSDGSFLLYSKLTVDKSRWQQGNVFSCSVMHEALHNHYTQKSLSLSPG
light 1: AIQMTQSPSSVSASVGDRVTITCRASQGVSSWLAWYQQKPGRAPKLLIYVASTLQSGVPSRFSGSGSGTDFTLTINSLQPEDFATYYCQQANSFPPTFGQGTRLEMKRTVAAPSVFIFPPSDEQLKSGTASVVCLLNNFYPREAKVQWKVDNALQSGNSQESVTEQDSKDSTYSLSSTLTLSKADYEKHKVYACEVTHQGLSSPVTKSFNRGEC
heavy 2: QVQLQESGPGLVKPSGTLSLTCAVSGGSISSYSWWSWIRQPPGKGLEWIGELYHSGSTNYNPSLKSRVTISVDKSKNQFSLKLRSVTAADTAVYYCVRGVATIDYWGQGTLVTVSSASTKGPSVFPLAPSSKSTSGGTAALGCLVKDYFPEPVTVSWNSGALTSGVHTFPAVLQSSGLYSLSSVVTVPSSSLGTQTYICNVNHKPSNTKVDKRVEPKSCDKTHTCPPCPAPEFERGPSVFLFPPKPKDTLMISRTPEVTCVVVDVSHEDPEVKFNWYVDGVEVHNAKTKPREEQYNSTYRVVSVLTVLHQDWLNGKEYKCKVSNKALPAPIEKTISKAKGQPREPQVYTLPPSREEMTKNQVSLTCLVKGFYPSDIAVEWESNGQPENNYKTTPPVLDSDGSFFLYSRLTVDKSRWQQGNVFSCSVMHEALHNHYTQKSLSLSPG
light 2: QSALTQPPSASGSPGQSVTISCTGTSSDVGGYNFVSWYQQDPGKAPKLLIYEVTKRPSGVPDRFSGSKSGNTASLTVSGLQAEDEADYYCSSYAGSNNVMFGGGTKLTVLGQPKAAPSVTLFPPSSEELQANKATLVCLISDFYPGAVTVAWKADSSPVKAGVETTTPSKQSNNKYAASSYLSLTPEQWKSHRSYSCQVTHEGSTVEKTVAPTECS
notes: Human IgG1 bispecific made by controlled Fab-arm exchange of IgG1-FAPα-FERL and IgG1-DR4-FERR; monovalent for FAPα and for DR4; also called GEN1057
EC50 [1]: 0.87 µg/mL
EC50 [2]: 0.67 µg/mL
EC50 [3]: 0.93 µg/mL
EC50 [4]: 0.89 µg/mL
EC50 [5]: 0.55 µg/mL
EC50 [6]: 0.53 µg/mL
EC50 [7]: 0.59 µg/mL
EC50 [8]: 0.52 µg/mL
